Data reported in article PMC3229823 (Virology, 2011).
Like-named read-outs stand apart in the source and are kept apart here.

Tests used:
[1] = molecular target: the molecule itself; experiment: SDS-resistant complexes on SDS-polyacrylamide gel, coomassie staining
[2] = molecular target: the molecule itself

B1: MBP-Agno (17-71) (domain or fragment)
chain: TWSGTKKRAQRILIFLLEFLLDFCTGEDSVDGKKRQRHSGLTEQTYSALPEPKAT
**Q.** Does B1 bind [1]?
**A.** binds

B2: MBP-SV40 Agno (full length SV40 agnoprotein fused to MBP) (natural protein)
chain: MVLRRLSRQASVKVRRSWTESKKTAQRLFVFVLELLLQFCEGEDTVDGKRKKPERLTEKPES
**Q.** Does B2 bind [2]?
**A.** binds
